{
  "source": "patent US20190184015A1",
  "about": "“IRRADIATION TREATMENT OF NEUROLOGICAL SENSATIONS BY PHOTOABLATION” (European Molecular Biology Laboratory, priority 2016, published 2019)",
  "molecules": {"B1": {"name": "IL31^SNAP-IR700: IL31^SNAP conjugated in vitro to benzylguanine modified IRDye®700DX phthalocyanine (conjugate)", "chain": "TCSLSFGAPISKEDLRTTIDLLKQESQDLYNNYSIKQASGMSADESIQLPCFSLDREALTNISVIIAHLEKVKVLSENTVDTSWVIRWLTNISCFNPLNLNISVPGNTDESYDCKVFVLTVLKQFSNCMAELQAKDNTTC", "modifications": "left off: small tags and cut ends", "notes": "IL31^SNAP conjugated in vitro to benzylguanine modified IRDye®700DX phthalocyanine"}, "B2": {"name": "IL31^K138A-SNAP-IR700 (conjugate)", "chain": "B1 chain with K115A", "modifications": "left off: small tags and cut ends"}, "B3": {"name": "BDNF^SNAP: recombinant BDNF protein with a SNAP-tag fused to its C-terminus (protein, UniProt P23560 19-247, looked up)", "Neurotrophic factor BDNF …": "APMKEANIRGQGGLAYPGVRTHGTLESVNGPKAGSRGLTSLADTFEHVIEELLDEDQKVRPNEENNKDADLYTSRVMLSSQVPLEPPLLFLLEEYKNYLDAANMSMRVRRHSDPARRGELSVCDSISEWVTAADKKTAVDMSGGTVTVLEKVPVSKGQLKQYFYETKCNPMGYTKEGCRGIDKRHWNSQCRTTQSYVRALTMDSKKRIGWRFIRIDTSCVCTLTIKRGR", "modifications": "C-terminal SNAP tag", "notes": "recombinant BDNF protein with a SNAP-tag fused to its C-terminus"}},
  "key": {"pain signaling (TrkA)": {"tested_on": "pain signaling (TrkA)", "assay": "Mechanical hypersensitivity after injection of the NGF ligand into the paw", "format": "in vivo, mouse", "settings": "injected into the paw of mice"}, "TrkB": {"target": "TrkB (Homo sapiens, UniProt Q16620)", "sequence (Q16620 32-822, species assumed)": "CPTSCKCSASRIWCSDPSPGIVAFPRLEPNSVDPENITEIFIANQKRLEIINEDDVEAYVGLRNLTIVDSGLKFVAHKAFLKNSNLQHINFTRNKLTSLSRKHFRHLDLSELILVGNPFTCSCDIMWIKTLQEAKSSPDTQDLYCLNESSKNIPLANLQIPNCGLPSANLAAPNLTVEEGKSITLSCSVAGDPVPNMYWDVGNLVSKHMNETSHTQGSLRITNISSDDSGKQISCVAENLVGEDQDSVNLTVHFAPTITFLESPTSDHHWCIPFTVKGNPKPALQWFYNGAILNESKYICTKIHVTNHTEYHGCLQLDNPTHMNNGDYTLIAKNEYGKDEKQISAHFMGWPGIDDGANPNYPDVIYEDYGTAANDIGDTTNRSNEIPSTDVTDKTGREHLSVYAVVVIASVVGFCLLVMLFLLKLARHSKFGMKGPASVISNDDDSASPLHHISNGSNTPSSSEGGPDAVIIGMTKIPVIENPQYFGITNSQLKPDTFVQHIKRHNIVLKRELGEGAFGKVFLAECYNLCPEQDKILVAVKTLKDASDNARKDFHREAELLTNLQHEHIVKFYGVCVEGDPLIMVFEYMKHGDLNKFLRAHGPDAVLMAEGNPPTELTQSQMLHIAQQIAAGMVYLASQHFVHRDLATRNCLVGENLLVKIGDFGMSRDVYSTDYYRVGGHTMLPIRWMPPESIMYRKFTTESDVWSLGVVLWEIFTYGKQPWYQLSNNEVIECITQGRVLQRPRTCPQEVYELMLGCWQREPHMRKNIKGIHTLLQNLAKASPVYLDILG", "assay": "NGF^SNAP binding to Trk expressing cells"}, "TrkC": {"target": "TrkC (Homo sapiens, UniProt Q16288)", "sequence (Q16288 32-839, species assumed)": "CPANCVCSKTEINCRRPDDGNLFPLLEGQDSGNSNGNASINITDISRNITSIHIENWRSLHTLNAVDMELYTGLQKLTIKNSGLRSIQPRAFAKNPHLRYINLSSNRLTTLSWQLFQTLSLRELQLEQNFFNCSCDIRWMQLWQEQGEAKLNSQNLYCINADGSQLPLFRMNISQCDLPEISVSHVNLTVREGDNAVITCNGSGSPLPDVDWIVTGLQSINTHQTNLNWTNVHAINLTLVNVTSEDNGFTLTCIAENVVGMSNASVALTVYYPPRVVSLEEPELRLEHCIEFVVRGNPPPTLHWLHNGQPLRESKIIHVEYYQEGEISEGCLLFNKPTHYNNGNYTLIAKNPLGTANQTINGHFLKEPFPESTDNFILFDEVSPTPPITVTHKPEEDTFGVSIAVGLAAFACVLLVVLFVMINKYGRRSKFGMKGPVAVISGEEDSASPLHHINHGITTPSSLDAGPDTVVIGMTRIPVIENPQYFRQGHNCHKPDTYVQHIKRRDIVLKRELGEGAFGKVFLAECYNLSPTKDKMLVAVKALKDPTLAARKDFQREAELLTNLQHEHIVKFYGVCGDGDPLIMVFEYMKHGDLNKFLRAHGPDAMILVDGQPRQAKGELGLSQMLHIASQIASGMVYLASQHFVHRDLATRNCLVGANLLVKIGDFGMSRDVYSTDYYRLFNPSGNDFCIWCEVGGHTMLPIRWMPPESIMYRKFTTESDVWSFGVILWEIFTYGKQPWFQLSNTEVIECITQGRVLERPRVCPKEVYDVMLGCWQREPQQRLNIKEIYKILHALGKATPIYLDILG", "assay": "NGF^SNAP binding to Trk expressing cells"}, "primary keratinocytes": {"tested_on": "primary keratinocytes", "assay": "In-vitro photo-ablation of primary keratinocytes (propidium iodide staining)", "format": "cell-based, mouse", "settings": "near infra-red light, 24 hours after", "experimental": "1 μM IL31^SNAP and 3 μM BG-IR700 were coupled for 1 hour at 37° C. The coupling reaction was applied for 10 minutes at 37° C. on primary wild type and IL31RA^−/− keratinocytes. Cells were then exposed to near infra-red light (680 nm) at 40 J/cm^2 for 2 minutes. 24 hours after light exposure cell death was assessed by Propidium iodide (PI) staining (Invitrogen #P3566) and cells were imaged with an epifluorescent microscope."}, "[1]": {"tested_on": "IL31 evoked scratching behavior", "assay": "Scratching during three days of IL31^SNAP-IR700 injection and illumination", "settings": "injected three consecutive days and skin illuminated"}, "[2]": {"tested_on": "IL31 receptor expressing cells", "assay": "In-vivo photo-ablation of skin, TUNEL assay", "parameters": "species or system mouse", "settings": "IL31RA^−/− mice; injection and near infrared light"}, "mechanical sensitivity": {"tested_on": "mechanical sensitivity", "assay": "Von Frey test after photoablation in the hind paw", "format": "in vivo, mouse", "experimental": "Mice were habituated on an elevated platform with a mesh floor for 30 minutes. The plantar side of the hind paw was stimulated with calibrated von-Frey filaments (North coast medical #NC12775-99) to assess baseline levels of mechanical sensitivity. The stimulation was then repeated at the 3rd day after the last photoablation performed on the same paw considered for the baseline. As a control group, the animals were injected but not illuminated. The 50% paw withdrawal thresholds were calculated using the Up-Down method (26)."}, "thermal sensitivity": {"tested_on": "thermal sensitivity", "assay": "Hot plate test after photoablation in the hind paw", "format": "in vivo, mouse", "experimental": "Mice were injected for three consecutive days with […] coupled with BG-IR700 with or without near IR light illumination. 3 days after the last injection, mice were placed on top of a hot plate (Ugo Basile #35150) that was preset to 52° C. and the latency to response as distinguished by flicking or licking of the hind paw was observed. In order to avoid injury to the mice, a cutoff of 30 seconds was set."}, "[3]": {"tested_on": "Calcipotriol model of atopic dermatitis", "assay": "Calcipotriol model of atopic dermatitis"}, "[4]": {"tested_on": "acute itch evoked by IL31, histamine, chloroquine or LY344864", "assay": "Pruritogen evoked scratching after photoablation", "format": "in vivo, mouse", "experimental": "To characterize IL31^K138A-SNAP mediated photoablation in vivo, the inventors first tested its efficacy at alleviating IL31 provoked itch. Mice were treated for three consecutively days with IL31^K138A-SNAP-IR700 and the skin was illuminated with near-IR light. Strikingly, IL31-induced scratching behavior was abolished in these animals (FIG. 2f), and this persisted throughout an 8 week observation period (Supplementary FIG. 2l). […] The inventors next tested the effects of photoablation on scratching provoked by other acutely applied pruritogens. […] Finally, to assess the specificity of photoablation to itch sensation, the inventors examined other sensory modalities after treatment."}, "IL31RA expressing cells": {"tested_on": "IL31RA expressing cells", "assay": "Cell type specificity of photo-ablation in skin", "format": "in vivo"}, "TrkB/p75": {"target": "T1, TrkB/p75 (Homo sapiens, UniProt Q16620)", "T1 construct": "expressed in transfected cells; host or cells: HEK293T", "T1 sequence (Q16620 32-822, species assumed)": "as the sequence (Q16620 32-822, species assumed) above", "assay": "BDNF^SNAP labelling of transfected HEK293T cells", "format": "binding", "settings": "labelled with SNAP-Surface647", "text": "(§1) In light of the clinical importance of mechanical allodynia in neuropathic pain patients, it was sought to develop a pharmacological strategy to exploit the striking selectivity of TrkB to the peripheral neurons which provoke this pain state. It was reasoned that BDNF, the ligand for TrkB, may give access to these neurons and allow for their manipulation in wildtype, non-transgenic animals. To this end the inventors produced a recombinant BDNF protein with a SNAP-tag fused to its C-terminus that would enable its chemical derivatization. BDNF^SNAP was labelled in vitro with fluorescent SNAP-Surface647 substrate and applied to HEK293T cells expressing neurotrophin receptors."}, "TrkA/p75": {"target": "T2, TrkA/p75 (Homo sapiens, UniProt P04629)", "T2 construct": "expressed in transfected cells; host or cells: HEK293T", "T2 sequence (P04629 33-796, species assumed)": "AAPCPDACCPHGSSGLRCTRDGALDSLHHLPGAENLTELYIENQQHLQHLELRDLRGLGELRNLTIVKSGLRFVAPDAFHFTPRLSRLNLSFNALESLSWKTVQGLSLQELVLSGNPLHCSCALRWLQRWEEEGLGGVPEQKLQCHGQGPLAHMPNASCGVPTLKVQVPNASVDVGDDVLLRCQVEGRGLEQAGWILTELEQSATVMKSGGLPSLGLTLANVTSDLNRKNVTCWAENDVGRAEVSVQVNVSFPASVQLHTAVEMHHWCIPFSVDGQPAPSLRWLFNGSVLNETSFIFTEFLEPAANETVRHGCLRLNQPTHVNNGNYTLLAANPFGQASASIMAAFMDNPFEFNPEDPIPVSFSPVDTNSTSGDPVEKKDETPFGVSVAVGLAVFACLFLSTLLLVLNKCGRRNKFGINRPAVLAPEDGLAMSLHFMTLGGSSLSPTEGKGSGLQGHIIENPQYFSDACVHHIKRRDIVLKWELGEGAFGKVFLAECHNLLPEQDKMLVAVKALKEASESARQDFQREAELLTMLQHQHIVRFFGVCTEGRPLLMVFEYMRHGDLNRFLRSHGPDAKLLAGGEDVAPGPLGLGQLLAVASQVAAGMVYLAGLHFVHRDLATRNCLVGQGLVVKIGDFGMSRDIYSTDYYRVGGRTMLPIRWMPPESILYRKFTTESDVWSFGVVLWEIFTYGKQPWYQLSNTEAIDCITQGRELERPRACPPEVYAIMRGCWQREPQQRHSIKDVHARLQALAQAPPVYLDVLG", "assay": "BDNF^SNAP labelling of transfected HEK293T cells", "format": "binding", "settings": "labelled with SNAP-Surface647", "text": "as §1"}, "TrkC/p75": {"target": "T3, TrkC/p75 (Homo sapiens, UniProt Q16288)", "T3 construct": "expressed in transfected cells; host or cells: HEK293T", "T3 sequence (Q16288 32-839, species assumed)": "as the sequence (Q16288 32-839, species assumed) above", "assay": "BDNF^SNAP labelling of transfected HEK293T cells", "format": "binding", "settings": "labelled with SNAP-Surface647", "text": "as §1"}, "[5]": {"target": "T4, native TrkB receptors in DRG neurons (Mus musculus, UniProt P15209)", "T4 construct": "whether BDNF^SNAP would recognize native TrkB receptors in DRG neurons; endogenous in cells; host or cells: dissociated dorsal root ganglion neurons from TrkBCreERT2::Rosa26RFP mice", "T4 sequence (P15209 32-821)": "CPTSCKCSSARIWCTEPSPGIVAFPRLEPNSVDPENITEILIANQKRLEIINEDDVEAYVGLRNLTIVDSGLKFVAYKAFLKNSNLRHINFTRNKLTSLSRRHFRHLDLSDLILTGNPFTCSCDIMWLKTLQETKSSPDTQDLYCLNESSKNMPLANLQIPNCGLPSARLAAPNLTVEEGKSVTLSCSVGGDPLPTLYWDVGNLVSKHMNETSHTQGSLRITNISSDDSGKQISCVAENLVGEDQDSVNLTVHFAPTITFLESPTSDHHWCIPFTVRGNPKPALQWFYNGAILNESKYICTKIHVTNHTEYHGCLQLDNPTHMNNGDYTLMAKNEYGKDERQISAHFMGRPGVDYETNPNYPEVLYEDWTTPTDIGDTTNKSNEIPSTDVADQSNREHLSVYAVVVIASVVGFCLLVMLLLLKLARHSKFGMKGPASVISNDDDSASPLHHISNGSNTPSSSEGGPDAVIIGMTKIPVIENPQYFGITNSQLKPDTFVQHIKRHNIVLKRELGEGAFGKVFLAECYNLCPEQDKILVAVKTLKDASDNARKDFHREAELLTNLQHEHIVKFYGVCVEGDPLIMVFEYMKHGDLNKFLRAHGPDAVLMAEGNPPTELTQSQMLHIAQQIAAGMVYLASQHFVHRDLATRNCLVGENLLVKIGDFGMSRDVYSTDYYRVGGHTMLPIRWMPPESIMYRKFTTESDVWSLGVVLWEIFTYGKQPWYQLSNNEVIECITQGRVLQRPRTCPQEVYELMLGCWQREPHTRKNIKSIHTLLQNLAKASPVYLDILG", "assay": "BDNF^SNAP Qdot 655 labelling of dissociated DRG", "format": "binding", "settings": "conjugated to Qdot 655; dissociated DRG from TrkBCreERT2::Rosa26RFP mice", "text": "The inventors further tested whether BDNF^SNAP would recognize native TrkB receptors in DRG neurons."}, "[6]": {"settings": "prevention: injection and near IR illumination 3 days prior to Calcipotriol"}, "[7]": {"settings": "rescue: subcutaneous injection and near IR light after 7 days Calcipotriol"}, "[8]": {"settings": "topical application in water-in-oil micro-emulsion, near IR light"}, "[9]": {"settings": "after photoablation with near-IR light"}},
  "note": "Substitutions are numbered along the chain they refer to. Names may count otherwise. “Also recorded” adds a separate entry of the source.",
  "data": [
    {"molecule": "NGF^SNAP: recombinant NGF^SNAP protein", "values": [
      {"measurement": "mechanical hypersensitivity provoked by the ligand", "setting": "pain signaling (TrkA)", "result": "strong sensitizing effect; also recorded: induces mechanical hypersensitivity"},
      {"measurement": "binding to TrkB cells", "setting": "TrkB", "result": "not TrkB or TrkC"},
      {"measurement": "binding to TrkC cells", "setting": "TrkC", "result": "not TrkB or TrkC"}
    ]},
    {"molecule": "B1", "values": [
      {"measurement": "cell death after illumination", "setting": "primary keratinocytes; IL31RA^−/− keratinocytes", "result": "not evident"},
      {"measurement": "cell death after illumination", "setting": "primary keratinocytes; wild type keratinocytes", "result": "substantial cell death"},
      {"measurement": "scratching bouts", "setting": "[1]", "result": "progressive decrease in scratching bouts"},
      {"measurement": "TUNEL positive apoptotic cells in skin", "setting": "[2]", "result": "largely absent"}
    ]},
    {"molecule": "B2", "values": [
      {"measurement": "mechanical sensitivity (von Frey filaments)", "setting": "mechanical sensitivity", "result": "no difference in response properties"},
      {"measurement": "thermal sensitivity (hot plate test)", "setting": "thermal sensitivity", "result": "no difference in response properties"},
      {"measurement": "development of dermatitis-like symptoms", "setting": "[3]; prevention: identical experiments in the absence of near IR illumination", "result": "normal development of dermatitis-like symptoms"},
      {"measurement": "development of atopic dermatitis-like indicators", "setting": "[3]; [6]", "result": "completely abolished the development of all indicators"},
      {"measurement": "scratching behavior", "setting": "[3]; [6]", "result": "remained at baseline levels"},
      {"measurement": "skin appearance", "setting": "[3]; [6]", "result": "skin appeared healthy and typical features of dermatitis such as redness and scaling were entirely absent"},
      {"measurement": "disease indicators of established dermatitis", "setting": "[3]; rescue: after 7 days Calcipotriol, subcutaneous injection and near IR light three days, over the course of 1 week", "result": "rescue of all disease indicators"},
      {"measurement": "scratching behavior", "setting": "[3]; [7]", "result": "returned to baseline levels"},
      {"measurement": "skin thickness, morphology and structure", "setting": "[3]; [7]", "result": "became indistinguishable from healthy mice"},
      {"measurement": "reversal of dermatitis-like symptoms", "setting": "[3]; rescue: without subsequent near IR illumination (control)", "result": "not evident"},
      {"measurement": "scratching behavior", "setting": "[3]; [8]", "result": "return to baseline levels of scratching behavior"},
      {"measurement": "skin structure and histology", "setting": "[3]; [8]", "result": "normalization of skin structure and histology"},
      {"measurement": "Calcipotriol provoked dermatitis-like symptoms", "setting": "[3]; topical application in water-in-oil micro-emulsion, near IR light 20 minutes later", "result": "both prevented and reversed Calcipotriol provoked dermatitis-like symptoms"},
      {"measurement": "LY344864 evoked itch", "setting": "[4]; [9]", "result": "no significant effect"},
      {"measurement": "chloroquine evoked itch", "setting": "[4]; [9]", "result": "no significant effect"},
      {"measurement": "histamine evoked itch", "setting": "[4]; [9]", "result": "no significant effect"},
      {"measurement": "IL31-evoked scratching", "setting": "[4]; injected but not illuminated (control)", "result": "no reduction in IL31-evoked scratching"},
      {"measurement": "IL31-induced scratching behavior", "setting": "[4]; three consecutive days treatment with near-IR light", "result": "abolished"},
      {"measurement": "persistence of abolished IL31-induced scratching", "setting": "[4]; with near-IR light, observation period", "result": "≥ 8", "unit": "week"},
      {"measurement": "effect of photo-ablation on other cell types", "setting": "IL31RA expressing cells", "result": "does not affect other cell types such as keratinocytes or epidermal Langerhans cells"}
    ]},
    {"molecule": "B3", "values": [
      {"measurement": "binding to HEK293T cells expressing TrkB/p75", "setting": "TrkB/p75", "result": "remarkable selectivity for its cognate receptor complex TrkB/p75"},
      {"measurement": "binding to HEK293T cells expressing TrkA/p75", "setting": "TrkA/p75", "result": "did not bind"},
      {"measurement": "binding to HEK293T cells expressing TrkC/p75", "setting": "TrkC/p75", "result": "did not bind"},
      {"measurement": "overlap between BDNF^SNAP and TrkBCreERT2 positive cells", "setting": "[5]", "result": "> 95", "unit": "%"}
    ]}
  ]
}
